Source: article PMC3640471, “The structures of Arabidopsis Deg5 and Deg8 reveal new insights into HtrA proteases” (Acta Crystallographica Section D: Biological Crystallography, 2013)

Experiments:
[1] = molecular target: Deg8 (sample of the analytical SEC) (Arabidopsis thaliana) (UniProt Q9LU10); experiment: SEC; analytical SEC of Deg8 at pH 6.0; Superdex 200 10/300 GL, 10 µM protein, sodium phosphate, 150 mM NaCl
[2] = molecular target: Deg8 (sample of the analytical SEC) (Arabidopsis thaliana) (UniProt Q9LU10); experiment: SEC; analytical SEC of Deg8 at pH 8.0; Superdex 200 10/300 GL, 10 µM protein, sodium phosphate, 150 mM NaCl
[3] = molecular target: the molecule itself; experiment: crystal structure; Deg5 (S266A), space group C2, three molecules per asymmetric unit, 2.6 Å
[4] = molecular target: the molecule itself; experiment: SEC; analytical SEC, Superdex 200 10/300 GL, 10 µM protein, sodium phosphate pH 6.0 or 8.0, 150 mM NaCl
[5] = molecular target: the molecule itself; experiment: crystal structure; Deg8 (S292A), space group C2, three molecules per asymmetric unit, 2.0 Å; hexamer in the crystal

Molecule “Deg8 (sample of the analytical SEC) (from UniProt Q9LU10 91-448) (enzyme)” has a stoichiometry N [1] of 3 and a stoichiometry N [2] of 6.

B1: Arabidopsis thaliana Deg5 (S266A) (enzyme)
chain: LEQFKEKEEELEEEEERNVNLFQKTSPSVVYIEAIELPKTSSGDILTDEENGKIEGTGSGFVWDKLGHIVTNYHVIAKLATDQFGLQRCKVSLVDAKGTRFSKEGKIVGLDPDNDLAVLKIETEGRELNPVVLGTSNDLRVGQSCFAIGNPYGYENTLTIGVVSGLGREIPSPNGKSISEAIQTDADINSGNAGGPLLDSYGHTIGVNTATFTRKGSGMSSGVNFAIPIDTVVRTVPYLIVYGTAYRDR
notes: HtrA protease Deg5 of Arabidopsis thaliana, catalytic Ser266 mutated to alanine; PDB 4ic5 holds the crystallised chain; source: purified; expression and purification described previously (Fan et al., 2012)
With B1 the “stoichiometry N” value [3] was 3.

B2: Deg5 (E87A/D260A/S266A) (enzyme, Arabidopsis thaliana)
chain: LEQFKEKEEELEEAEERNVNLFQKTSPSVVYIEAIELPKTSSGDILTDEENGKIEGTGSGFVWDKLGHIVTNYHVIAKLATDQFGLQRCKVSLVDAKGTRFSKEGKIVGLDPDNDLAVLKIETEGRELNPVVLGTSNDLRVGQSCFAIGNPYGYENTLTIGVVSGLGREIPSPNGKSISEAIQTDAAINSGNAGGPLLDSYGHTIGVNTATFTRKGSGMSSGVNFAIPIDTVVRTVPYLIVYGTAYRDR
notes: HtrA protease Deg5 of Arabidopsis thaliana with E87A, D260A and S266A; parent is Deg5 (S266A), m1; also called Deg5 (S266A/E87A/D260A) triple mutant; mutant (E87A/D260A/S266A)
In the case of B2, the “stoichiometry N” value [4] is reported as 3.

B3: Arabidopsis thaliana Deg8 (S292A) (enzyme, UniProt Q9LU10 91-448, looked up)
chain: LGDPSVATVEDVSPTVFPAGPLFPTEGRIVQLFEKNTYSVVNIFDVTLRPQLKMTGVVEIPEGNGSGVVWDGQGYIVTNYHVIGNALSRNPSPGDVVGRVNILASDGVQKNFEGKLVGADRAKDLAVLKVDAPETLLKPIKVGQSNSLKVGQQCLAIGNPFGFDHTLTVGVISGLNRDIFSQTGVTIGGGIQTDAAINPGNAGGPLLDSKGNLIGINTAIFTQTGTSAGVGFAIPSSTVLKIVPQLIQFSKVLRAGINIELAPDPVANQLNVRNGALVLQVPGKSLAEKAGLHPTSRGFAGNIVLGDIIVAVDDKPVKNKAELMKILDEYSVGDKVTLKIKRGNEDLELKISLEEKSS
notes: HtrA protease Deg8 of Arabidopsis thaliana, 358 residues Leu91-Ser448, catalytic Ser292 mutated to alanine; residues 104-448 defined in the density; source: expression and purification described previously (Shan et al., 2013)
With B3 the “stoichiometry N” value [5] was 6.
